# From patent US20210108251, “DETECTION OF ENDONUCLEASE ACTIVITY” (AARHUS UNIVERSITET, published 2021)
# B1: REN2-ID33-EcoRI (structured_DNA)
# DNA: ATTTGACGAATTCGTCGTATAGGAACTTCGAACGACTCGCCTCAATGCACATGTTTGGCTCCCGAGTCGTTCGAAGTTCCTATACGACGAATTCGTCAAAT
# modifications: 5'-amine and 3'-amine
# B2: REN2-PB-EcoRI (structured_DNA)
# DNA: ATTTCCAGAATTCTGGGTATAGGAACTTCGAACGACTCGACTGTGAAGATCGCTTATCGAGTCGTTCGAAGTTCCTATACCCAGAATTCTGGAAAT
# modifications: 5'-amine and 3'-amine
# Tests used:
# [1] = molecular target: T1, EcoRI (UniProt P00642 P00642:2-277); assay: cleavage_in_vitro; assayed as pair with SEQ 2; cleavage-ligation-RCA readout; Mg acetate pH 7.9, 37 C; std error 6.6; details: tags: Thermo Scientific; chain copies: 2; hairpin
# T1 sequence (P00642 2-277, one chain of several): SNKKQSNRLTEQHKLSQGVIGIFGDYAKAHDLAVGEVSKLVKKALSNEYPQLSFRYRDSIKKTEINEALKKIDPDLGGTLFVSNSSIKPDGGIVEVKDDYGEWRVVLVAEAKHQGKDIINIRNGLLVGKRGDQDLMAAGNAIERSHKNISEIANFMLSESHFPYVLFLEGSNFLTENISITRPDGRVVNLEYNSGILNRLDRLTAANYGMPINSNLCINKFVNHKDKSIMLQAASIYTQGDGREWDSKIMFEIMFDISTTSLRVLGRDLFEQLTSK
# Experimental: (§1) For detection of EcoRI activity, 50 pmol of each of the two substrates REN2-ID33-EcoRI (SEQ ID NO: 1) and REN2-PB-EcoRI (SEQ ID NO: 2) were incubated for 1 h at 37° C. either with or without 10 units of EcoRI. The reaction was done in a reaction buffer containing 500 mM Potassium Acetate; 200 mM Tris-acetate; 100 mM Magnesium Acetate; and 1 mg/ml BSA (pH 7.9). The reaction volume was 50 μL. After incubation, the restriction endonuclease was inactivated by heating to 94° C. for 10 minutes. ATP was added to a final concentration of 10 mM and 1 unit of T4 ligase (Invitrogen) was added. The reaction mixture was then incubated over night at room temperature.
# (§2) The two substrate molecules carrying the EcoRI cleavage sites (see materials and methods) were incubated with or without purified enzyme and subjected to the protocol as described in materials and methods (see also FIG. 1A). After counting the signals, the fold increase over background (no enzyme) was calculated.
# [2] = molecular target: T1, EcoRI; assay: cleavage_in_vitro; assayed as pair with SEQ 1; cleavage-ligation-RCA readout; Mg acetate pH 7.9, 37 C; std error 6.6; details: tags: Thermo Scientific; chain copies: 2; hairpin
# Experimental: as §1, §2
Binder,activity [1] [fold over no enzyme],activity [2] [fold over no enzyme]
B1,110,
B2,,110
